# Source: patent US20030236197A1 (PRAECIS PHARMACEUTICALS, published 2003)
# Square brackets hold non-standard residues; d marks the D form. Ends that are not written are not given here. * marks the point of attachment. dPhe(F5) = N[C@H](Cc1c(F)c(F)c(F)c(F)c1F)C(=O)O; dPhe(4-F) = N[C@H](Cc1ccc(F)cc1)C(=O)O; NHiPr = CC(C)N*
# Target: T1, Aβ1-40 peptide (monomeric start material of the nucleation assay)
# Assay: cell-based or functional assay
Binder,Nucleation assay Δ lag at 1.25 µM compound,Nucleation assay Δ lag at 2.5 µM compound,Nucleation assay Δ lag at 5 µM compound,"Nucleation assay Δ lag at 0.3 µM compound (row marked *: measured at 3, 1 and 0.3 µM)","Nucleation assay Δ lag at 0.6 µM compound (row marked #: measured at 2.5, 1.25 and 0.6 µM)","Nucleation assay Δ lag at 1 µM compound (row marked *: measured at 3, 1 and 0.3 µM)","Nucleation assay Δ lag at 1.25 µM compound (row marked #: measured at 2.5, 1.25 and 0.6 µM)","Nucleation assay Δ lag at 2.5 µM compound (row marked #: measured at 2.5, 1.25 and 0.6 µM)","Nucleation assay Δ lag at 3 µM compound (row marked *: measured at 3, 1 and 0.3 µM)"
"{N,N‑diethyl}-G[dA][dF][dF][dV][dL]-NH2 (also: TFA salt) [PPI-1005: TFA • N,N-diethyl-(Gaffvl)-NH2]",1 ratio of lag time to control,3 ratio of lag time to control,3 ratio of lag time to control,,,,,,
{N‑methyl}-G[dA][dF][dF][dV][dL]-NH2 (also: TFA salt) [PPI-968: TFA • N-methyl-(Gaffvl)-NH2],2 ratio of lag time to control,> 5 ratio of lag time to control,> 5 ratio of lag time to control,,,,,,
"{N,N‑dimethyl}-G[dA][dF][dF][dV][dL]-NH2 (also: TFA salt) [PPI-803: TFA • N,N-dimethyl-(Gaffvl)-NH2]",< 1 ratio of lag time to control,< 1 ratio of lag time to control,< 1 ratio of lag time to control,,,,,,
"{N,N‑dimethyl}-[dL][dV][dF][dF][dL]-NH2 (also: TFA salt) [PPI-1007: TFA • N,N-dimethyl-(lvffl)-NH2]",,,,3 ratio of lag time to control,1.5 ratio of lag time to control,4 ratio of lag time to control,1.5 ratio of lag time to control,1.5 ratio of lag time to control,4 ratio of lag time to control
"{N,N‑diethyl}-[dA][dF][dF][dV][dL]-NH2 (also: TFA salt) [PPI-1006: TFA • N,N-diethyl-(affvl)-NH2]",1 ratio of lag time to control,1 ratio of lag time to control,1 ratio of lag time to control,,,,,,
G[dA][dF][dF][dV][dL]-NH2 (not fully specified (N-terminus); printed as N-isopropyl-(Gly-D-Ala-D-Phe-D-Phe-D-Val-D-Leu)-NH2; also: TFA salt) [PPI-970: TFA • N-isopropyl-(Gaffvl)-NH2],1 ratio of lag time to control,> 5 ratio of lag time to control,> 5 ratio of lag time to control,,,,,,
H-[dL][dV][dF][dF][dA]-NMe2 (also: TFA salt) [PPI-993: TFA • H-(lvffa)-dimethylamide],1 ratio of lag time to control,1 ratio of lag time to control,1 ratio of lag time to control,,,,,,
H-[dL][dV][dF][dF][dA]-NHiPr (also: TFA salt) [PPI-992: TFA • H-(lvffa)-isopropylamide],1 ratio of lag time to control,1 ratio of lag time to control,3 ratio of lag time to control,,,,,,
"{N,N‑dimethyl}-[dA][dF][dF][dV][dL]-NH2 (also: TFA salt) [PPI-913: TFA • N,N-dimethyl-(affvl)-NH2]",1 ratio of lag time to control,1 ratio of lag time to control,1 ratio of lag time to control,,,,,,

# Target: T1, Aβ1-40 peptide (monomeric start …)
# Assay: cell-based or functional assay
# Remark: another data set of the same source
Binder,"Nucleation assay data (Δ lag) at 0.6 µM compound (row marked *: measured at 2.5, 1.25 and 0.6 µM)","Nucleation assay data (Δ lag) at 1.25 µM compound (row marked *: measured at 2.5, 1.25 and 0.6 µM)","Nucleation assay data (Δ lag) at 2.5 µM compound (row marked *: measured at 2.5, 1.25 and 0.6 µM)",Nucleation assay data (Δ lag) at 0.3 µM compound,Nucleation assay data (Δ lag) at 1 µM compound,Nucleation assay data (Δ lag) at 3 µM compound
{N‑methyl}-[dL][dV][dF][dF][dL]-NH2 (also: TFA salt) [PPI-1019: TFA • N-methyl-(lvffl)-NH2],2 ratio of lag time to control,> 2.5 ratio of lag time to control,> 2.5 ratio of lag time to control,,,
"H-[dL]-[dV]-[dF] (also: dimer: C-termini of two tripeptides joined through hydrazine (-NH-NH-), 2 TFA salt) [PPI-1125: 2 TFA • H-lvf-NH-NH-fvl-H]",2 ratio of lag time to control,> 2.5 ratio of lag time to control,> 2.5 ratio of lag time to control,,,
H-[dL][dF][dK][dV][dL]-NH2 (also: 2 TFA salt) [PPI-1321: 2TFA • H-(lfkvl)-NH2],,,,< 1 ratio of lag time to control,< 1 ratio of lag time to control,< 1 ratio of lag time to control
H-[dL][dF][dPhe(4-F)][dV][dL]-NH2 (also: TFA salt) [PPI-1319: TFA • H-(lf-[p-F]f-vl)-NH2],,,,1 ratio of lag time to control,> 5 ratio of lag time to control,> 5 ratio of lag time to control
H-[dL][dF][dPhe(F5)][dV][dL]-NH2 (also: TFA salt) [PPI-1320: TFA • H-(lf-[F5]f-vl)-NH2],,,,1 ratio of lag time to control,3 ratio of lag time to control,> 5 ratio of lag time to control
